Laboratory results from patent US20050053985A1 (PTC THERAPEUTICS, published 2005).

Each binder was assayed against SmB/B′ proteins (human, UniProt P14678 1-240) (assay: co-purification with the His-Flag-tagged bait from stable 293 cells (anti-Flag beads, then Ni beads); SDS-PAGE, Western blot with Y12 antibody (SmB/B′)).
Method: Proteins co-purified with His-Flag-HsSen2, His-Flag-HsSen2deltaEx8, His-Flag-HsSen34, His-Flag-HsSen15 and His-Flag-HsClp1 were analyzed by SDS-PAGE followed by Western blotting with antibodies against Symplekin, CstF64. Y12 antibody that recognizes SmB/B′ proteins was used a negative control.
Complexes purified using the different epitope-tagged subunits of the endonuclease complexes were analyzed by Western blotting using antibodies specific for Symplekin and CstF64, components of the human pre-mRNA 3′-end processing complex. Y12 antibody (known to recognize pre-mRNA splicing snRNP […] proteins) was used as a negative control. […] Similar amounts of 3′-end complexes were purified from all His-Flag-tagged tRNA endonuclease subunits. Since the purification conditions were very stringent and utilized two affinity chromatography steps (see experimental procedures), the interaction between tRNA splicing endonuclease and pre-mRNA 3′-end processing factors is quite robust. Immunoprecipitation under standard salt conditions to more accurately determine the amount of 3′-end factors associated with the tRNA endonuclease was also performed. It was shown that as much as 1% of the 3′-end processing factors are associated with the tRNA endonuclease. […] Furthermore, His-Flag-HsSen2deltaEx8 and His-Flag-HsClp1 were able to associate with a larger proportion of the 3′-end formation complexes (FIG. 29, compare lane 8 and 11 to 7, 9, 10). [0764] 5.2.2.7 Depletion of SEN2 Causes Defects in tRNA Splicing and Pre-mRNA 3′ end Formation

| Binder | binding result |
| --- | --- |
| His-Flag-HsSen2deltaEx8 (other, not shown: small tags and cut ends, also called His-Flag-Sen2ΔEx8; His-Flag-Sen2deltaEx8) MAEAVFHAPKRKRRVYETYESPLPIPFGQDHGPLKEFKIFRAEMINNNVIVRNAEDIEQLYGKGYFGKGILSRSRPSFTISDPKLVAKWKDMKTNMPIITSKRYQHSVEWAAELMRRQGQDESTVRRILKDYTKPLEHPPVKRNEEAQVHDKLNSGMVSNMEGTAGGERPSVVNGDSGKSGGVGDPREPLGCLQEGSGCHPTTESFEKSVREDASPLPHVCCCKQDALILQRGLHHEDGSQHIGLLHPGDRGPDHEYVLVEEAECAMSEREAAPNEELVQRNRLICRRNPYRIFEYLQLSLEEEPLTIVKLWKAFTVVQPTFRTTYMAYHYFRSKGWVPKVGLKYGTDLLLYRKGPPFYHASYSVIIELVDDHFEGSLRRPLSWKSLAALSRVSVNVSKELMLCYLIKPSTMTDKEMESPECMKRIKVQEVILSRWVSSRERSDQDDL | no binding |
| His-Flag-HsSen2 (other, not shown: small tags and cut ends, Bait expressed stably in 293 cells and purified with its partners over anti-Flag and Ni beads; also called His-Flag-Sen2; His-Flag-Sen2WT) MAEAVFHAPKRKRRVYETYESPLPIPFGQDHGPLKEFKIFRAEMINNNVIVRNAEDIEQLYGKGYFGKGILSRSRPSFTISDPKLVAKWKDMKTNMPIITSKRYQHSVEWAAELMRRQGQDESTVRRILKDYTKPLEHPPVKRNEEAQVHDKLNSGMVSNMEGTAGGERPSVVNGDSGKSGGVGDPREPLGCLQEGSGCHPTTESFEKSVREDASPLPHVCCCKQDALILQRGLHHEDGSQHIGLLHPGDRGPDHEYVLVEEAECAMSEREAAPNEELVQRNRLICRRNPYRIFEYLQLSLEEAFFLVYALGCLSIYYEKEPLTIVKLWKAFTVVQPTFRTTYMAYHYFRSKGWVPKVGLKYGTDLLLYRKGPPFYHASYSVIIELVDDHFEGSLRRPLSWKSLAALSRVSVNVSKELMLCYLIKPSTMTDKEMESPECMKRIKVQEVILSRWVSSRERSDQDDL | no binding |

Second part, the binder after the results:

| binding result | Binder |
| --- | --- |
| no binding | His-Flag-HsSen34 (other, not shown: small tags and cut ends, Bait expressed stably in 293 cells; also called His-Flag-Sen34; His-Flag-34) MLVVEVANGRSLVWGAEAVQALRERLGVGGRTVGALPRGPRQNSRLGLPLLLMPEEARLLAEIGAVTLVSAPRPDSRHHSLALTSFKRQQEESFQEQSALAAEARETRRQELLEKITEGQAAKKQKLEQASGASSSQEAGSSQAAKEDETSDGQASGEQEEAGPSSSQAGPSNGVAPLPRSALLVQLATARPRPVKARPLDWRVQSKDWPHAGRPAHELRYSIYRDLWERGFFLSAAGKFGGDFLVYPGDPLRFHAHYIAQCWAPEDTIPLQDLVAAGRLGTSVRKTLLLCSPQPDGKVVYTSLQWASLQ |
| no binding | His-Flag-HsSen15 (other, Bait expressed stably in 293 cells; also called His-Flag-Sen15; tagged HsSen15; not shown: His and Flag tag from the His-Flag-pcDNA3.1/Hygro vector) MEERGDSEPTPGCSGLGPGGVRGFGDGGGAPSWAPEDAWMGTHPKYLEMMELDIGDATQVYVAFLVYLDLMESKSWHEVNCVGLPELQLICLVGTEIEGEGLQTVVPTPITASLSHNRIREILKASRKLQGDPDLPMSFTLAIVESDSTIVYYKLTDGFMLPDPQNISLRR |
